Reference: article PMC5923235
Each block holds one substance with its values, some of them ahead of it.

Assays:
[1] = target: NTS1 A90C^1.58 (TM1) in the Cys-depleted background of rat neurotensin receptor 1 (rat) (UniProt P20789); test: FRET or BRET; ensemble FRET; A488- and A555-labelled NTS1 reconstituted together 1:1 in brain polar lipid liposomes; apo; ~1 μM receptor; 50 mM Tris-HCl pH 7.4, 50 mM NaCl, 1 mM EDTA, 10% glycerol; room temperature; Ecor corrected for donor-to-acceptor ratio
[2] = target: NTS1 A90C^1.58 (TM1) in the Cys-depleted background of rat neurotensin receptor 1 (rat) (UniProt P20789); test: FRET or BRET; ensemble FRET as for the apo samples, with 5 μM agonist neurotensin (+NT); A488- and A555-labelled NTS1 1:1 in brain polar lipid liposomes; room temperature
[3] = target: NTS1 A261C^5.52 (TM5) in the Cys-depleted background of rat neurotensin receptor 1 (rat) (UniProt P20789); test: FRET or BRET; ensemble FRET; A488- and A555-labelled NTS1 reconstituted together 1:1 in brain polar lipid liposomes; apo; ~1 μM receptor; 50 mM Tris-HCl pH 7.4, 50 mM NaCl, 1 mM EDTA, 10% glycerol; room temperature; Ecor corrected for donor-to-acceptor ratio
[4] = target: NTS1 A261C^5.52 (TM5) in the Cys-depleted background of rat neurotensin receptor 1 (rat) (UniProt P20789); test: FRET or BRET; ensemble FRET as for the apo samples, with 5 μM agonist neurotensin (+NT); A488- and A555-labelled NTS1 1:1 in brain polar lipid liposomes; room temperature
[5] = target: NTS1 L371C^7.55 (TM7) in the Cys-depleted background of rat neurotensin receptor 1 (rat) (UniProt P20789); test: FRET or BRET; ensemble FRET; A488- and A555-labelled NTS1 reconstituted together 1:1 in brain polar lipid liposomes; apo; ~1 μM receptor; 50 mM Tris-HCl pH 7.4, 50 mM NaCl, 1 mM EDTA, 10% glycerol; room temperature; Ecor corrected for donor-to-acceptor ratio
[6] = target: NTS1 L371C^7.55 (TM7) in the Cys-depleted background of rat neurotensin receptor 1 (rat) (UniProt P20789); test: FRET or BRET; ensemble FRET as for the apo samples, with 5 μM agonist neurotensin (+NT); A488- and A555-labelled NTS1 1:1 in brain polar lipid liposomes; room temperature
[7] = target: NTS1 Q378C^8.52 (H8) in the Cys-depleted background of rat neurotensin receptor 1 (rat) (UniProt P20789); test: FRET or BRET; ensemble FRET; A488- and A555-labelled NTS1 reconstituted together 1:1 in brain polar lipid liposomes; apo; ~1 μM receptor; 50 mM Tris-HCl pH 7.4, 50 mM NaCl, 1 mM EDTA, 10% glycerol; room temperature; Ecor corrected for donor-to-acceptor ratio
[8] = target: NTS1 Q378C^8.52 (H8) in the Cys-depleted background of rat neurotensin receptor 1 (rat) (UniProt P20789); test: FRET or BRET; ensemble FRET as for the apo samples, with 5 μM agonist neurotensin (+NT); A488- and A555-labelled NTS1 1:1 in brain polar lipid liposomes; room temperature
[9] = target: NTS1 S(C)172C^3.55 (TM3, re-introduced native Cys) in the Cys-depleted background of rat neurotensin receptor 1 (rat) (UniProt P20789); test: FRET or BRET; ensemble FRET; A488- and A555-labelled NTS1 reconstituted together 1:1 in brain polar lipid liposomes; apo; ~1 μM receptor; 50 mM Tris-HCl pH 7.4, 50 mM NaCl, 1 mM EDTA, 10% glycerol; room temperature; Ecor corrected for donor-to-acceptor ratio
[10] = target: NTS1 S(C)172C^3.55 (TM3, re-introduced native Cys) in the Cys-depleted background of rat neurotensin receptor 1 (rat) (UniProt P20789); test: FRET or BRET; ensemble FRET as for the apo samples, with 5 μM agonist neurotensin (+NT); A488- and A555-labelled NTS1 1:1 in brain polar lipid liposomes; room temperature
[11] = target: NTS1 T186C^4.42 (TM4) in the Cys-depleted background of rat neurotensin receptor 1 (rat) (UniProt P20789); test: FRET or BRET; ensemble FRET; A488- and A555-labelled NTS1 reconstituted together 1:1 in brain polar lipid liposomes; apo; ~1 μM receptor; 50 mM Tris-HCl pH 7.4, 50 mM NaCl, 1 mM EDTA, 10% glycerol; room temperature; Ecor corrected for donor-to-acceptor ratio
[12] = target: NTS1 T186C^4.42 (TM4) in the Cys-depleted background of rat neurotensin receptor 1 (rat) (UniProt P20789); test: FRET or BRET; single-molecule FRET by TIRF microscopy; Cy3- and Cy5-labelled NTS1 T186C in DPhPC droplet interface bilayers, 100:405:45 Cy3:Cy5:unlabelled, receptor density 0.43 μm^-2; 50 mM NaCl, 1 mM EDTA, 50 mM Tris-HCl pH 7.4; 30 ms frames; constants are of dimer to monomers in two dimensions
[13] = target: NTS1 T186C^4.42 (TM4) in the Cys-depleted background of rat neurotensin receptor 1 (rat) (UniProt P20789); test: FRET or BRET; ensemble FRET as for the apo samples, with 5 μM agonist neurotensin (+NT); A488- and A555-labelled NTS1 1:1 in brain polar lipid liposomes; room temperature
[14] = target: NTS1 V307C^6.34 (TM6) in the Cys-depleted background of rat neurotensin receptor 1 (rat) (UniProt P20789); test: FRET or BRET; ensemble FRET; A488- and A555-labelled NTS1 reconstituted together 1:1 in brain polar lipid liposomes; apo; ~1 μM receptor; 50 mM Tris-HCl pH 7.4, 50 mM NaCl, 1 mM EDTA, 10% glycerol; room temperature; Ecor corrected for donor-to-acceptor ratio
[15] = target: NTS1 V307C^6.34 (TM6) in the Cys-depleted background of rat neurotensin receptor 1 (rat) (UniProt P20789); test: FRET or BRET; ensemble FRET as for the apo samples, with 5 μM agonist neurotensin (+NT); A488- and A555-labelled NTS1 1:1 in brain polar lipid liposomes; room temperature
[16] = target: NTS1 Y104C^2.41 (TM2) in the Cys-depleted background of rat neurotensin receptor 1 (rat) (UniProt P20789); test: FRET or BRET; ensemble FRET; A488- and A555-labelled NTS1 reconstituted together 1:1 in brain polar lipid liposomes; apo; ~1 μM receptor; 50 mM Tris-HCl pH 7.4, 50 mM NaCl, 1 mM EDTA, 10% glycerol; room temperature; Ecor corrected for donor-to-acceptor ratio
[17] = target: NTS1 Y104C^2.41 (TM2) in the Cys-depleted background of rat neurotensin receptor 1 (rat) (UniProt P20789); test: FRET or BRET; ensemble FRET as for the apo samples, with 5 μM agonist neurotensin (+NT); A488- and A555-labelled NTS1 1:1 in brain polar lipid liposomes; room temperature

Substance: NTS1 A261C^5.52 (TM5) in the Cys-depleted background of rat neurotensin receptor 1 (from UniProt P20789 43-424)
Ecor(apo) [3]: 0.98
Ecor(+NT) [4]: 1.05

Substance: NTS1 L371C^7.55 (TM7) in the Cys-depleted background of rat neurotensin receptor 1 (from UniProt P20789 43-424)
Ecor(apo) [5]: 0.68
Ecor(+NT) [6]: 0.7

Substance: NTS1 Q378C^8.52 (H8) in the Cys-depleted background of rat neurotensin receptor 1 (from UniProt P20789 43-424)
Ecor(apo) [7]: 0.89
Ecor(+NT) [8]: 0.89

Substance: NTS1 V307C^6.34 (TM6) in the Cys-depleted background of rat neurotensin receptor 1 (from UniProt P20789 43-424)
Ecor(apo) [14]: 0.99
Ecor(+NT) [15]: 0.82

More lines, now with the values ahead:

Ecor(apo) [1]: 0.73
Ecor(+NT) [2]: 0.77
Substance: NTS1 A90C^1.58 (TM1) in the Cys-depleted background of rat neurotensin receptor 1 (from UniProt P20789 43-424)

Ecor(apo) [9]: 1.03
Ecor(+NT) [10]: 1.02
Substance: NTS1 S(C)172C^3.55 (TM3, re-introduced native Cys) in the Cys-depleted background of rat neurotensin receptor 1 (from UniProt P20789 43-424)

Ecor(apo) [11]: 0.77
dimer half-life t1/2 [12]: 1.2 s
koff [12]: 0.58 s⁻¹
percent of receptors as dimers at 0.43 molecules per μm^2 [12]: 9.8%
stoichiometry N [12]: 2
Ecor(+NT) [13]: 0.78
Substance: NTS1 T186C^4.42 (TM4) in the Cys-depleted background of rat neurotensin receptor 1 (from UniProt P20789 43-424)

Ecor(apo) [16]: 0.9
Ecor(+NT) [17]: 0.9
Substance: NTS1 Y104C^2.41 (TM2) in the Cys-depleted background of rat neurotensin receptor 1 (from UniProt P20789 43-424)
